This test deals with T1, ELP1 (human, UniProt O95163 1-1332).
T1 sequence (looked up): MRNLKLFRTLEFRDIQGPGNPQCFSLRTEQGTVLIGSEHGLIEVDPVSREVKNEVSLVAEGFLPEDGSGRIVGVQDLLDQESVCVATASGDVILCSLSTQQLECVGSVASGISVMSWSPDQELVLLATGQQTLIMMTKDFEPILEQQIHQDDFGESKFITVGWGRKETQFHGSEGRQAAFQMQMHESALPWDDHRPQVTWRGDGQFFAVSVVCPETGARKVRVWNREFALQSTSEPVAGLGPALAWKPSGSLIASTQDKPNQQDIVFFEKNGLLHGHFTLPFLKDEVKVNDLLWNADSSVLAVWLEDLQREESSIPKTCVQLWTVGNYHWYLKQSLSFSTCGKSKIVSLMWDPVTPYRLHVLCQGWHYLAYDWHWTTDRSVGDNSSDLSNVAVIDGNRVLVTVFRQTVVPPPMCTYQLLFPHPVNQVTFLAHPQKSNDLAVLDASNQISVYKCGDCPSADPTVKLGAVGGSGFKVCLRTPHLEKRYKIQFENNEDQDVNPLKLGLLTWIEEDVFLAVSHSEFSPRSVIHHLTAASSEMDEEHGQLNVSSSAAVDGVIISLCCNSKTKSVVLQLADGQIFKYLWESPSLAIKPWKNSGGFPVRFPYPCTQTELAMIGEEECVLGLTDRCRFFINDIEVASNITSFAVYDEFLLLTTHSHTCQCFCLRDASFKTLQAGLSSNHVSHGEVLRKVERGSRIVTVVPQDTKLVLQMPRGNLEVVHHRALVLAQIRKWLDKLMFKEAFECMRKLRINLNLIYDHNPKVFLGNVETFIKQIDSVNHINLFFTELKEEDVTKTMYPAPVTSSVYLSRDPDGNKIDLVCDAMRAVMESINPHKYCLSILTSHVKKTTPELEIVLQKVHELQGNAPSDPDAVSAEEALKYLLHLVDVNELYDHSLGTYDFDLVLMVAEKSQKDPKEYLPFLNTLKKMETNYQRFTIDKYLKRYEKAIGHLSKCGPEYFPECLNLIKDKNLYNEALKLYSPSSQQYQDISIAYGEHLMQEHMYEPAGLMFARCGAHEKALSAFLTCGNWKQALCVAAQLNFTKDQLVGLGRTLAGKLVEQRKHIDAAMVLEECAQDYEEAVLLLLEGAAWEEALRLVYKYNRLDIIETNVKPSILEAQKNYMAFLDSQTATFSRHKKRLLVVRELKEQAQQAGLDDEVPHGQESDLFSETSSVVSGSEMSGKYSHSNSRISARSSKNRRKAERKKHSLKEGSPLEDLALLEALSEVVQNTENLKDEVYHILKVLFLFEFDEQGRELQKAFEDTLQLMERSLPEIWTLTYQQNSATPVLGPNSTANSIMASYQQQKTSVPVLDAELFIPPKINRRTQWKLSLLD
Briefly: IP/MS, LZTR1 wild type-FLAG, U87. A digest of the protocol:
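Read-out: spectral counts from LC-MS/MS (Orbitrap Fusion) after MaxQuant identification. Variable modifications were Met oxidation, protein N-terminal acetylation and N/Q deamidation.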

B1: LZTR1-FLAG (other, human, UniProt Q8N653 1-840, looked up)
chain: MAGPGSTGGQIGAAALAGGARSKVAPSVDFDHSCSDSVEYLTLNFGPFETVHRWRRLPPCDEFVGARRSKHTVVAYKDAIYVFGGDNGKTMLNDLLRFDVKDCSWCRAFTTGTPPAPRYHHSAVVYGSSMFVFGGYTGDIYSNSNLKNKNDLFEYKFATGQWTEWKIEGRLPVARSAHGATVYSDKLWIFAGYDGNARLNDMWTIGLQDRELTCWEEVAQSGEIPPSCCNFPVAVCRDKMFVFSGQSGAKITNNLFQFEFKDKTWTRIPTEHLLRGSPPPPQRRYGHTMVAFDRHLYVFGGAADNTLPNELHCYDVDFQTWEVVQPSSDSEVGGAEVPERACASEEVPTLTYEERVGFKKSRDVFGLDFGTTSAKQPTQPASELPSGRLFHAAAVISDAMYIFGGTVDNNIRSGEMYRFQFSCYPKCTLHEDYGRLWESRQFCDVEFVLGEKEECVQGHVAIVTARSRWLRRKITQARERLAQKLEQEAAPVPREAPGVAAGGARPPLLHVAIREAEARPFEVLMQFLYTDKIKYPRKGHVEDVLLIMDVYKLALSFQLCRLEQLCRQYIEASVDLQNVLVVCESAARLQLSQLKEHCLNFVVKESHFNQVIMMKEFERLSSPLIVEIVRRKQQPPPRTPLDQPVDIGTSLIQDMKAYLEGAGAEFCDITLLLDGHPRPAHKAILAARSSYFEAMFRSFMPEDGQVNISIGEMVPSRQAFESMLRYIYYGEVNMPPEDSLYLFAAPYYYGFYNNRLQAYCKQNLEMNVTVQNVLQILEAADKTQALDMKRHCLHIIVHQFTKVSKLPTLRSLSQQLLLDIIDSLASHISDKQCAELGADI
notes: Expressed in HEK 293T, HeLa or U87 cells; used as cell lysate; also called LZTR1 wild type-FLAG; LZTR1 WT; not shown: FLAG tag at the C-terminus
B1: the binding result is reported as “binds”.

(Values after patent US20250262210A1 (TRUSTEES OF COLUMBIA UNIVERSITY IN THE CITY OF NEW YORK, published 2025).)
